Measurements reported in paper PMC3967765 (Archives of biochemistry and biophysics, 2014).

Assays:
[1] = target: T1, huCOX-2 (human cyclooxygenase-2) (Homo sapiens, UniProt P35354, N580A)
T1 sequence (P35354 18-604 N580A): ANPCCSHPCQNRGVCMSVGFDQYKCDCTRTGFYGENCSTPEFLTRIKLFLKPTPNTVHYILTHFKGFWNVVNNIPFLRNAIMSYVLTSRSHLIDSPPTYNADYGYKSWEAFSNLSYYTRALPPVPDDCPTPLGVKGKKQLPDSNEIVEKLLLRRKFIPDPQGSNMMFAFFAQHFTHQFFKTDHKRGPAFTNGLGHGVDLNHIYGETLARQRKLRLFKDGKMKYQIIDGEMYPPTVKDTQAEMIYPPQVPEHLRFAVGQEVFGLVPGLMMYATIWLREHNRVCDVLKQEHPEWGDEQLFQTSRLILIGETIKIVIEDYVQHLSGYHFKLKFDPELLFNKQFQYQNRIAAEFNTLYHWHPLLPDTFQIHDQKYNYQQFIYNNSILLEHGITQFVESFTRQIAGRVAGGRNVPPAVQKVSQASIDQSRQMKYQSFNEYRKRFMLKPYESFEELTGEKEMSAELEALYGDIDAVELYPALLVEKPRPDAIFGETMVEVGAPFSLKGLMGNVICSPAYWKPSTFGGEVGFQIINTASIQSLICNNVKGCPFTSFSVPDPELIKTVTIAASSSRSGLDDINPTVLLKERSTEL

[2] = target: T1, huCOX-2 (human cyclooxygenase-2); conditions: oxygen electrode
purified protein [3] = substrate: CC/C=C\C/C=C\C/C=C\C/C=C\C/C=C\CCCC(=O)O; experiment: purified protein; conditions: heme (Fe3+-protoporphyrin IX)
purified protein [4] = substrate: CCCCC/C=C\C/C=C\C/C=C\C/C=C\CCCC(=O)O; experiment: purified protein; conditions: heme (Fe3+-protoporphyrin IX)
purified protein [5] = substrate: CCCCC/C=C\C/C=C\C/C=C\C/C=C\CCCC(=O)OCC(O)CO; experiment: purified protein; conditions: heme (Fe3+-protoporphyrin IX)
SEC = target: the molecule itself; experiment: SEC

## Cc1ccc(Cl)c(Nc2ccccc2C(=O)O)c1Cl [Meclo, meclofenamic acid]
[1]
  oxygen electrode, 50 μM inhibitor, 30 min pre-incubation: Flurbiprofen, indomethacin, meclofenamic acid, and celecoxib caused near complete inhibition of cyclooxygenase activity.

## COc1ccc2cc([C@H](C)C(=O)O)ccc2c1 [Napx, naproxen]
[2]
  % loss of activity: 60-70 % loss of activity

B1: FLAG N580A murine (mu) COX-2 (enzyme, UniProt Q05769 18-604, looked up)
chain: ANPCCSNPCQNRGECMSTGFDQYKCDCTRTGFYGENCTTPEFLTRIKLLLKPTPNTVHYILTHFKGVWNIVNNIPFLRSLIMKYVLTSRSYLIDSPPTYNVHYGYKSWEAFSNLSYYTRALPPVADDCPTPMGVKGNKELPDSKEVLEKVLLRREFIPDPQGSNMMFAFFAQHFTHQFFKTDHKRGPGFTRGLGHGVDLNHIYGETLDRQHKLRLFKDGKLKYQVIGGEVYPPTVKDTQVEMIYPPHIPENLQFAVGQEVFGLVPGLMMYATIWLREHNRVCDILKQEHPEWGDEQLFQTSRLILIGETIKIVIEDYVQHLSGYHFKLKFDPELLFNQQFQYQNRIASEFNTLYHWHPLLPDTFNIEDQEYSFKQFLYNNSILLEHGLTQFVESFTRQIAGRVAGGRNVPIAVQAVAKASIDQSREMKYQSLNEYRKRFSLKPYTSFEELTGEKEMAAELKALYSDIDVMELYPALLVEKPRPDAIFGETMVELGAPFSLKGLMGNPICSPQYWKPSTFGGEVGFKIINTASIQSLICNNVKGCPFTSFNVQDPQPTKTATIAASASHSRLDDINPTVLIKRRSTEL
Purified protein [3]
  Km: 1.9 µM
  kcat: 6.3 s⁻¹
  kcat/Km: 3.3e+06 M⁻¹ s⁻¹
Purified protein [4]
  Km: 6.8 µM
  kcat: 36.1 s⁻¹
  kcat/Km: 5.3e+06 M⁻¹ s⁻¹
Purified protein [5]
  Km: 6.8 µM
  kcat: 30.9 ± 0.7 s⁻¹
  kcat/Km: 4.5e+06 M⁻¹ s⁻¹
SEC
  stoichiometry N: 2
